Results as given in patent US8003357B2, “Acidophilic enzymes” (Helmholtz-Zentrum Fuer Infektionsforschung GmbH, priority 2005, dated 2011).

What was measured:
Format in all cases: biochemical
[1] = test system: 5′ phosphorylated oligonucleotides; Sau3A digested λ DNA; assay: DNA ligation using LigFA; conditions: 40° C.
Procedure: For DNA ligation, double-stranded DNA fragments, each comprising a complementary 3′ overhang which were phosphorylated in 5′ can be ligated in a total volume of 20 μL ligation buffer (100 mM Na-citrate, pH 3.0, 10 μM Fe^2+, 0.01-0.1 mM ATP, optionally 0.5 mM dithiothreitol), 0.1-5 micrograms DNA and 1 to 20 nmoles ligase. The reaction conditions are 40° C. for 5 minutes to 2 hours, the reaction can be stopped by the addition of stop buffer 98% (vol/vol) formamide, 10 mM EDTA, 0.05% bromophenol blue, 0.05% xylene cyanol, 0.2% SDS), followed by heating to 95° C. for 5 minutes or, alternatively, by adding stop/loading buffer (30% sucrose, 150 mM EDTA, 0.15% SDS, 0.03% bromophenol blue), and heating to 90° C. for 2 minutes.
Oligonucleotides were phosphorylated in 5′.
Reactions were carried out in different buffers: HEPES, pH 7.0 (lane 1), HEPES, pH 6.0 (lane 2), sodium acetate, pH 5.0 (lane 3), sodium acetate, pH 4.0 (lane 4), sodium citrate, pH 3.0 to 0.5 (lanes 5 to 9, respectively). For detection of ligation, gel electrophoresis on a 10% denaturing polyacrylamide gel containing 7 M urea in TBE buffer (90 mM Tris-borate, 2.5 mM EDTA), staining with ethidium bromide. A densitometric reproduction of the gel region containing 60 base fragments is represented in FIG. 7. […]

TOP 2 fragmented DNA = assay: Religation of topoisomerase 2 induced DNA breaks; conditions: LigFA pH 4.0 to 2.0; T4 ligase acidic pH values; FIG. 9
Procedure: For a comparison of the religation activities of acidic LigFA to T4 ligase on DNA containing breaks caused by topoisomerase 2 (TOP 2), ligation activities were determined in vitro at various pH values. The results are shown in the non-denaturing agarose gel of FIG. 9.
DNA was incubated with TOP 2 to induce DNA damage. At pH 5.0, TOP 2 caused DNA breaks (lane 2) but not at pH 3.0 (lane 3).

[2] = Fe2+ content (ICP-MS) and Fe2+ dependence of activity, dialysis against EDTA; conditions: relative to wild type = 100; after dialysis against 1 mM EDTA; 100 mM sodium citrate, 10 mM FeCl2
Procedure: The UV-VIS absorption spectra of purified acidic enzymes are shown in FIG. 4, wherein the uninterrupted lines refer to Fe^2+ containing enzymes and the interrupted lines refer to enzymes after dialysis against EDTA containing buffer. The λ-max values found at ca. 572 nm correlate with the Fe^2+ content, i.e. disappear after incubation with EDTA or DTT for 24 h. ICP-MS analysis confirmed the presence of 0.82±0.10 mol Fe in EstFA, 0.34±0.08 mol Fe in αGluFA, […] and 0.63±0.09 mol Fe in LigFA.
In FIG. 5, relative activities of acidic enzymes with varying content of Fe^2+ are shown. For analysis, purified enzymes were incubated in 1 mM EDTA. At time intervals indicated, two aliquots were removed, one was used for hydrolysis of respective substrates, the other for ICP-MS analysis of Fe. For relative activities, activities before incubation with EDTA were used as 100% values.
When further investigating the dependence of the acidic enzymes according to the invention on Fe^2+, relative activity for EstFA, αGluFA and LigFA were investigated for their natural Fe^2+ content, e.g. wild-type, which was set to 100%, in comparison to the activity after dialysis against a 1 mM EDTA containing buffer.

[3] = pH and temperature dependence, stability and activity of recombinant acidic enzymes
Procedure: The acidic enzymes according to the invention were expressed in E. coli using the genomiccoding sequence for the respective enzyme from Ferroplasma acidiphilum, which are described in detail below. For enzymatic conversions, reaction conditions were in 100 mM sodium acetate buffer, 100 mM citrate buffer, 100 mM HEPES buffer for 2 minutes at 30° C., using p-nitrophenol propionate as the substrate for esterase, starch in the case of glycosidases, and HindIII digested λ DNA for ligase.
The activity was assayed using p-nitrophenol propionate as a substrate for esterase, starch for αGluFA and GlyFA1, GlyFA2, and HindIII digested λ DNA for LigFA.
The acidic enzymes according to the invention in vitro show similar elevated reaction temperatures. Substrates were as described for FIG. 2 above.
An overview of catalytic and molecular properties of acidic enzymes that were heterologously expressed in E. coli is given in the following Table III: […]

B1: LigFA: DNA ligase obtainable from Ferroplasma acidiphilum, 595 amino acids, Seq. ID No. 3, Fe2+ dependent (protein, listed as Ferroplasma acidiphilum)
chain: MHLMNMVDPDFNSLIELSKSAGDMTKIEPAMLRNFLDESSLSSRGAPVEIKEIKDYKIKLDGRTLNARMYDDNNAKSAILYYHGGGFLFGNIETYDNYCRFLAKESGVKIISIEYRLAPEHKFPDAFNDAYDSFHYIAKKKKDFGIEGRIGVAGDSAGANLAAALCLKCRDGKTEMPAVQVLFYPSLAPDNFSRSFIEYSDNYVLTGKMIRYFGNMYSKNMQDLINPYFSPLVADDFSNLPPAIMVTNEYDPLRDPEETYVKKLREAGVRAVGIRGIGMIHGSATDFEVSDGARNIVKMVARIIPDYL
modifications: CDS (1)..(927) est FA
notes: ID No. 3, Fe2+ dependent
ligation of Sau3A digested λ DNA ([1]; 20 nM LigFA, 2 hours): demonstrates ligation | ligation of two oligonucleotides (35 and 25 bases) on a 70 base oligonucleotide ([1]; 20 nM ligFA, 5 minutes): ligation was obtained | religation of TOP 2 fragmented DNA at acidic pH (TOP 2 fragmented DNA): clearly demonstrated | activity, +EDTA [2]: 0.15% | enzymatic stability at elevated temperatures ([3]; FIG. 2, LigFA pH 3.0, EstFA and αGluFA pH 2.0 at 40 and 50° C., GlyFA1 and GlyFA2 pH 4.0 at 40° C.): good stability | Optimum temperature ([3]; measured at optimum pH): 40 °C | Optimum pH ([3]; measured at optimum temperature): 1.5-3.0
